Measurements: patent US11932880B2, “Enzyme and method for assaying pentosidine using same” (priority 2018, dated 2024)

B1: Lysine Oxidase Derived from Trichoderma viride: purchased enzyme manufactured by Merck, SEQ ID NO: 14 (protein)
chain: MDNVDFAESVRTRWARRLIREKVAKELNILTERLGEVPGIPPPREGRFLGGGYSHDNLPSDPLYSSIKPALLKEAPRAEEELPPRKVCIVGAGVSGLYIAMILDDLKIPNLTYDIFESSSRTGGRLYTHHFTDAKHDYYDIGAMRYPDIPSMKRTFNLFKRTGMPLIKYYLDGENTPQLYNNHFFAKGVVDPYMVSVANGGTVPDDVVDSVGEKLQQAFGYYKEKLAEDFDKGFDELMLVDDMTTREYLKRGGPKGEAPKYDFFAIQWMETQNTGTNLFDQAFSESVIDSFDFDNPTKPEWYCIEGGTSLLVDAMKETLVHKVQNNKRVEAISIDLDAPDDGNMSVKIGGKDYSGYSTVFNTTALGCLDRMDLRGLNLHPTQADAIRCLHYDNSTKVALKFSYPWWIKDCGITCGGAASTDLPLRTCVYPSYNLGDTGEAVLLASYTWSQDATRIGSLVKDAPPQPPKEDELVELILQNLARLHAEHMTYEKIKEAYTGVYHAYCWANDPNVGGAFALFGPGQFSNLYPYLMRPAAGGKFHIVGEASSVHHAWIIGSLESAYTAVYQFLYKYKMWDYLRLLLERWQYGLQELETGKHGTAHLQFILGSLPKEYQVKIV
modifications: Trichoderma viride
B2: Amino Acid Oxidase Type VI Derived from Crotalus adamanteus: purchased enzyme manufactured by Merck, SEQ ID NO: 12 (protein, listed as Crotalus adamanteus)
chain: AHDRNPLEECFRETDYEEFLEIAKNGLTATSNPKRVVIVGAGMAGLSAAYVLAGAGHQVTVLEASERVGGRVRTYRKKDWYANLGPMRLPTKHRIVREYIKKFDLKLNEFSQENENAWYFIKNIRKRVREVKNNPGLLEYPVKPSEEGKSAAQLYVESLRKVVEELRSTNCKYILDKYDTYSTKEYLLKEGNLSPGAVDMIGDLLNEDSGYYVSFIESLKHDDIFGYEKRFDEIVGGMDQLPTSMYEAIKEKVQVHFNARVIEIQQNDREATVTYQTSANEMSSVTADYVIVCTTSRAARRIKFEPPLPPKKAHALRSVHYRSGTKIFLTCTKKFWEDDGIHGGKSTTDLPSRFIYYPNHNFTSGVGVIIAYGIGDDANFFQALDFKDCADIVINDLSLIHELPKEDIQTFCHPSMIQRWSLDKYAMGGITTFTPYQFQHFSEALTAPFKRIYFAGEYTAQFHGWIDSTIKSGLTAARDVNRASENPSGIHLSNDNEF
B3: Amino Acid Oxidase Type I Derived from Crotalus atrox: purchased enzyme manufactured by Merck, SEQ ID NO: 13 (protein)
chain: AHDRNPLEECFRETDYEEFLEIAKNGLTATSNPKRVVIVGAGMAGLSAAYVLAGAGHQVTVLEASERVGGRVRTYRKKDWYANLGPMRLPTKHRIVREYIKKFDLKLNEFSQENENAWYFIKNIRKRVREVKNNPGLLEYPVKPSEEGKSAAQLYVESLRKVVEELRSTNCKYILDKYDTYSTKEYLLKEGNLSPGAVDMIGDLLNEDSGYYVSFIESLKHDDIFGYEKRFDEIVGGMDQLPTSMYEAIKEKVQVHFNARVIEIQQNDREATVTYQTSANEMSSVTADYVIVCTTSRAARRIKFEPPLPPKKAHALRSVHYRSGTKIFLTCTKKFWEDDGIHGGKSTTDLPSRFIYYPNHNFTSGVGVIIAYGIGDDANFFQALDFKDCADIVINDLSLIHELPKEDIQTFCHPSMIQRWSLDKYAMGGITTFTPYQFQHFSEALTAPFKRIYFAGEYTAQFHGWIDSTIKSGLTAARDVNRASENPSGIHLSNDNEF
modifications: Crotalus atrox
B4: PenOX1: protein having the amino acid sequence of SEQ ID NO: 2, pentosidine oxidase from Sarocladium sp., gene g4462 (protein, listed as Sarocladium sp.)
chain: MKSPSLAVAGLLLGSSSLSHATQLRIETRKSLNSRIANVHIDVDAPVAHQVVFTYGPCDSESQENAHHVIAQSQKLEGRKPHRLIWTMPKDLHPDDCISAWGESGDLLGRSVPQKVAHKEMRRRKRDDSDYSIPMNSSSGIDVYGPWFDGVALLEKSDNHNVDVEAAKAKEIAIVGAGMAGLTTYFILSEAGLSNLTILEASGRLGGRVRTEYLSGGPRDHSYAEMGPMRIPYQARFGDKAYNISDQAIFFRLVEKVNERNKKLGNTKDLINLIPFIQSSPNGLAYYQGNKLENGLPPTQADVAADPALGNESPEIPESAQELAAQLQRALPNAEFLELMATNFWQAHAEFLENQGPAGLPGDQWSEFAFLVNYLNATVFDANAVTGGYDWHSSLDRSSLVGMNLLPNAFHPLVDDITKFNAKVEKVQLDEKTSRLKLHWRANYTDPELESQSFDYAILSPTMPAVQKLRLPGLPFAMRNAVDSMPYASACKVALEYRTRFWEKFDNPIYGSCSTSTDIPGIGSVCYPSSNINGSGPASLLASYEIGRPYGAEWAGIPEEQHVQYVIDAMIDIHGEVARREFTGKCKRKCWALDEFSNGGWASPTVGNHETYLPSFFETHSHMIFVGEHTSYTHAWIASAIESAVRGSVQLLLELGLIDEAKDVVNTWMARWISVVSDLSKAVVSGASA

Legend:
[1] = Enzyme activity measurement with pentosidine as substrate (A555 change, U/mL); format: biochemical; conditions: 37° C.; for specific activity, as a reference value (pentosidine oxidase): 1 mg of powder dissolved in 1 mL deionized water; for pentosidine oxidase activity: purchased enzymes at 1 mg/mL, potassium phosphate buffer pH 7.5, 100 mM
Method: 600 μL of an arbitrary buffer, 400 μL of deionized water solution in which 3.99 U/mL peroxidase, 1.8 mM 4-aminoantipyrine and 2 mM TOOS were dissolved, and 150 μL of deionized water were incubated at an arbitrary temperature for 10 minutes. Then, 50 μL of the enzyme solution having been stored on ice and 400 μL of a solution of 4 mM pentosidine dissolved in a 100 mM potassium phosphate buffer (pH 8.0) having been incubated at an arbitrary temperature for 10 minutes were added thereto, followed by stirring and reacting at an arbitrary temperature for 3 minutes. A change over time of A555 during the reaction was measured using a spectrophotometer (U-3900, manufactured by Hitachi High-Tech Science Corporation). An elapsed time from the start of the measurement of 20 seconds to 60 seconds—A555 change was regarded as an activity value.
Besides, an amount of the enzyme generating 1 μmol of hydrogen peroxide per minute at 37° C. was defined as one unite (U), and the activity was calculated in accordance with the following equation. Activity (U/mL)={(ΔAs−ΔA0)×1.6×df}/(39.2×0.5×0.05) • ΔAs: change of A555 per minute of reaction solution • ΔA0: change of A555 per minute of control experiment • 1.6: volume (mL) of whole reaction solution • df: dilution factor • 39.2: millimolar absorbance coefficient (mM^−1-cm-1) of quinoneimine pigment generated through reaction • 0.5: molar number of quinoneimine pigment generated by 1 mol of hydrogen peroxide • 0.05: volume (mL) of enzyme solution
A 50 mM citric acid-100 mM potassium phosphate buffer (pH 4.0 to 7.5, a final concentration), a potassium phosphate buffer (pH 6.5 to 8.0, a final concentration of 100 mM), and a glycine buffer (pH 8.0 to 11.0, a final concentration of 100 mM) were prepared, and these were used to perform an enzymatic reaction at respective pH at a temperature of 37° C. […] Therefore, it was determined that the optimum pH of PenOX2 is pH 6.5 to 8.0, and that the most suitable optimum pH is pH 7.5.
A potassium phosphate buffer (pH 7.5) having a final concentration of 50 mM was used to perform the activity measurement of PenOX2 at various temperatures. The highest activity was obtained around 50° C., and a temperature range for attaining 80% or more of this highest activity was 37° C. to 50° C. Therefore, it was determined that the range of the optimum temperature of PenOX2 is 37° C. to 50° C.
The above-described activity measurement method was employed to perform activity measurement using a potassium phosphate buffer (final pH in the activity measurement: pH 7.5, final concentration of 50 mM) at 37° C., and an activity value (U/mL) was obtained by using the aforementioned equation.
As described above, both PenOX1 and PenOX2 had the pentosidine oxidase activity. […] Subsequently, the following three enzymes were purchased, and the above-described activity measurement method was employed for confirming their pentosidine oxidase activity using a potassium phosphate buffer (pH 7.5, final concentration of 100 mM) at 37° C. The amino acid sequence homologies with PenOX1 and PenOX2 and the pentosidine oxidase activities of these enzymes were as follows.

[2] = Pentosidine quantitative test (DA-67/peroxidase, A658, Bio Majesty JCA-BM1650); format: biochemical; conditions: 0.2-4.0 μM pentosidine solutions, 37° C., 5 minutes; ΔA658 correlated with final pentosidine concentration (FIG. 4)
Method: The following reagents were prepared to measure pentosidine by using Bio Majesty JCA-BM1650 (manufactured by JEOL Ltd.).
0.2 μM, 0.4 μM, 0.6 μM, 1.0 μM, 2.0 μM or 4.0 μM pentosidine solution
25 μL of the sample was added to 50 μL of the first reagent, and the resultant was incubated at 37° C. for 5 minutes. Then, 25 μL of the second reagent was added thereto to allow a pentosidine oxidation reaction owing to PenOX2 and a detection reaction for hydrogen peroxide generated through the reaction to proceed at 37° C. for 5 minutes.
In the detection reaction for hydrogen peroxide, simultaneously with consumption of […], DA-67 is oxidized into methylene blue to present the color, and the absorbance (A658) is increased. As an example, the relationship between the elapsed time after the mixture of the sample (4.0 μM pentosidine solution) and the first reagent and the absorbance (A658) is shown in FIG. 3. It was confirmed that A658 increased immediately after the addition of the second reagent containing PenOX2.
Subsequently, an A658 increment (AA) caused by the oxidation of pentosidine was calculated in accordance with the following equation: ΔA=(absorbance 5 min after addition of second reagent)−(absorbance immediately before addition of second reagent×0.75)

Molecule	specific activity, as a reference value (pentosidine oxidase) ([1]; pH 7.5, 100 mM) [U/mg]	pentosidine oxidase activity [1] [U/mL]	specific activity (pentosidine oxidase) ([1]; enzyme concentration 1 mg/mL (biuret method), pH 7.5, 100 mM) [U/mg]	pentosidine oxidation activity [2]
B1	0.063	0.063	–	–
B2	–	0.555	0.555	–
B3	0.022	0.022	–	–
B4	–	–	–	similarly exhibited pentosidine oxidation activity
